Where no end group is shown, it is not given here.
Experiments:
[1] = target: T1, actin (Example II solid-phase assay and BIAcore; source not stated) (Oryctolagus cuniculus (Rabbit), UniProt P68135 3-377); assay: SPR, BIAcore 3000, actin amine-coupled to CM5 chip; column heads taken as printed
Description: (§1) SPR was performed on a BIAcore 3000 instrument (BIAcore, Uppsala, Sweden). Actin was diluted in 100 mM CH3COONa pH 4.6 to a final concentration of 20 μg/ml (200 μl total) resulting in ˜1 ng immobilized actin on a CM5 BIAcore sensor chip (GE Healthcare Bio-Sciences AB) using the standard BIAcore amine coupling chemistry protocol. The CM5 chip allows four separate flow cells to be operated in the BIAcore 3000 instrument used in these experiments. Coupling is achieved by activating the surface of the sensor chips with equal volumes of 50 mM N-hydroxysuccimide (NHS)/200 mM Nethyl-N-(3-[…])-carboiimide (EDC) (BIAcore, AB, Uppsala, Sweden) to form activated carboxyl groups. An actin solution (15 μg/ml) was run over the chip for 5 min at a rate of 10 μl/min, allowing the amine groups on the protein to react with the activated esters. In the final stage of immobilization, the surface was blocked by 1M ethanol amine, pH 8.0. […] Injections were performed simultaneously over all four channels and blank surface (a plain dextran matrix, channel 1) was used as control. The net signal was obtained by subtracting the blank signal from the signal of the immobilized surface. The association phase for protein or peptides binding to actin was followed for 4 min, and dissociation phases were monitored for 3 min. Surface regeneration between consecutive binding cycles included a 1 min injection of 1 mM NaOH. The response was monitored as a function of time (sensorgram) at 25° C. Multi-concentration data were globally fit using BIA evaluation 3.2 software.

[2] = target: T1, actin (Example II solid-phase assay and …); assay: solid-phase actin binding assay: 500 ng actin coated per well, peptide in 1:2 dilutions from 500 ng/well, rabbit anti-trT2-49 and goat anti-rabbit IgG-HRP, A655
Description: (§2) 96-well plates (MaxiSorp® flat-bottom 96-well plate, Fisher Scientific Inc., Fair Lawn, N.J.) were coated with 500 ng actin in 100 μl carbonate-bicarbonate buffer (pH 9.5) for 1 h at 37° C. The plate was washed once with TBS and then blocked with 3% BSA in 200 μl TBS buffer at 37° C., for 1 h. […] The wells were washed three times with TBST and then incubated with 100 μl goat anti-rabbit IgG-HRP (Jackson ImmunoResearch, West Grove, Pa.) diluted 1:10,000 in TBS, for 1 h at 37° C. Wells were then washed twice with TBST, and once with TBS before 100 μl substrate (1-step Ultra TMB-ELISA, Pierce, Fisher Scientific Inc.) were added. Absorbance at 655 nm was measured 10 min thereafter using a Power Wave 200 Microplate Scanning Spectrophotometer (Bio-Tek Instrument, Winooski, Vt.). Affinity was evaluated by double reciprocal plotting.
(§3) For further insight on the actin binding site within the hRNASET2 protein sequence 29 candidate peptides were tested for their ability to bind actin.

[3] = target: T1, actin (Example II solid-phase assay and …); assay: solid-phase actin binding assay (ELISA, immobilized actin), double reciprocal plot
Description: as §2, §3

[4] = target: T1, actin (Example II solid-phase assay and …); assay: SPR, BIAcore 3000, actin amine-coupled to CM5 chip
Description: as §1

[5] = target: T1, actin (Example II solid-phase assay and …); assay: solid-phase actin binding assay: 500 ng actin coated per well, protein in 1:2 dilutions from 500 ng/well, rabbit anti-trT2-49 and goat anti-rabbit IgG-HRP, A655
Description: as §2
To further evaluate the strength of this interaction BIAcore analysis was performed in order to quantify and understand the kinetics of the interaction between these two molecules.

[6] = target: T1, actin (Example II solid-phase assay and …); assay: not given; presumably the solid-phase actin binding assay of the 29 peptides
[7] = target: T1, actin (Example II solid-phase assay and …); assay: solid-phase actin binding assay: 500 ng actin coated per well, protein in 1:2 dilutions from 500 ng/well, rabbit anti-trT2-49 and goat anti-rabbit IgG-HRP, A655; remark: listed apart in the source
Description: as §2, §3

[8] = target: T1, actin (Example II solid-phase assay and …); assay: as above; remark: listed apart in the source
Description: as §2, §3

Binder	Kd [1] [µM]	koff [1] [s⁻¹]	EC50 (read off the curve) [2] [ng/100ul]	Kd [3] [µM]	kon [4] [M⁻¹ s⁻¹]	EC50 (read off the curve) [5] [ng/100ul]	binding result [6]	EC50 (read off the curve) [7] [ng/100ul]	EC50 (read off the curve) [8] [ng/100ul]
peptide A103-Q159 (Synthetic peptide of human RNASET2, tested free in solution; also called 22A) peptide: ALNSQKKYFGRSLELYRELDLNSVLLKLGIKPSINYYQVADFKDALARVYGVIPKIQ	0.00322	3.04	~20	0.068					
trT2-49m polypeptide (other) EGCNRSWPFNLEEIKDLLPEMRAYWPDVIHSFPNRSRFWKHEWEKHGTCAAQVDALNSQKKYFGRSLELYRADFKDALARVYGVIPKIQCLPPSQDEEVQTIGQIELCLTKQDQQLQNCTEPGEQPSPKQEVWLANGAAESRGLRVCEDGPVFYPPPKKTKH	19.4	0.00969			500	~20			
KKYFGRSLELYRELDLNSVLLKLGIK (not fully specified, Synthetic 26 aa peptide of human RNASET2 (helix 5 and 6), tested free in solution in ELISA and SPR; also called 22B; T2 peptide) [peptide K108-K133]	14.2	0.0458			3320				
KKYFGRSLELYRELDL (also called K108-L123 (16 aa)) [peptide K108-L123]							no binding		
truncated RNASET2 polypeptide trT2-49 (other, Described as amino acids 49-232 of full length, native RNASET2; also called truncated T2 polypeptide) EGCNRSWPFNLEEIKDLLPEMRAYWPDVIHSFPNRSRFWKHEWEKHGTCAAQVDALNSQKKYFGRSLELYRELDLNSVLLKLGIKPSINYYQVADFKDALARVYGVIPKIQCLPPSQDEEVQTIGQIELCLTKQDQQLQNCTEPGEQPSPKQEVWLANGAAESRGLRVCEDGPVFYPPPKKTKH	7.72	0.0132			1710	~30		~30	~30
